Reference: publication PMC10570040 (Nucleic Acids Research, 2023)

Legend:
[1] = biological target: the molecule itself; assay: AUC; sedimentation velocity, 42,000 rpm, 20°C, absorbance at 280 nm, analysed with SEDFIT
[2] = biological target: the molecule itself; assay: crystal structure; microbatch under oil at 22°C; space group P4(3)2(1)2, two monomers in the asymmetric unit

B1: EnfR mutant with N-terminal six residues deleted (ΔN^1–6) (domain or fragment, Thermococcus onnurineus NA1, UniProt B6YTS4 7-146, looked up)
chain: LTEQQIKILRLRARGLKQSEIAELLGTSRANISILERRALEKIEKARNTITIWEQINSKISVEVRKGEDIFTVPDKLFKKADELQIKVPYSTAEIIAFLVEHAPISDRIAKRDFTLFLDARDRLRISECLLEEFDEIGKQ
notes: TON_1525 (EnfR) of Thermococcus onnurineus NA1, residues 1-146 without the N-terminal six residues (N-6 region, residues 1-6); The limits 7-146 follow from the printed deletion of residues 1-6 of the 1-146 construct; also called mutant with the N-6 region deleted; source: E. coli, purified by the same procedure as the wild-type; not shown: His6, C-terminal, kept
With B1 the “stoichiometry N” value [1] was 2.

B2: TON_1525 ('eighth note' fold regulator, EnfR), wild-type (natural protein, Thermococcus onnurineus NA1, UniProt B6YTS4 1-146, looked up)
chain: MGSKSFLTEQQIKILRLRARGLKQSEIAELLGTSRANISILERRALEKIEKARNTITIWEQINSKISVEVRKGEDIFTVPDKLFKKADELQIKVPYSTAEIIAFLVEHAPISDRIAKRDFTLFLDARDRLRISECLLEEFDEIGKQ
notes: Synthetic gene in pET24a(+) with an in-frame non-cleavable C-terminal His6-tag; also called WT; wild-type EnfR; source: E. coli Rosetta (DE3), purified (75°C heat step, Ni-NTA, Superdex 75); not shown: His6, C-terminal, kept
For B2, the “stoichiometry N” value [1] was 2.

B3: EnfR R44A mutant (natural protein, Thermococcus onnurineus NA1, UniProt B6YTS4 1-146, looked up)
chain: MGSKSFLTEQQIKILRLRARGLKQSEIAELLGTSRANISILERAALEKIEKARNTITIWEQINSKISVEVRKGEDIFTVPDKLFKKADELQIKVPYSTAEIIAFLVEHAPISDRIAKRDFTLFLDARDRLRISECLLEEFDEIGKQ
notes: TON_1525 (EnfR) of Thermococcus onnurineus NA1, residues 1-146, with R44A; source: E. coli, purified by the same procedure as the wild-type; not shown: His6, C-terminal, kept
B3 was tested, and the “stoichiometry N” value [1] was 2.

B4: EnfR R43A mutant (natural protein, Thermococcus onnurineus NA1, UniProt B6YTS4 1-146, looked up)
chain: MGSKSFLTEQQIKILRLRARGLKQSEIAELLGTSRANISILEARALEKIEKARNTITIWEQINSKISVEVRKGEDIFTVPDKLFKKADELQIKVPYSTAEIIAFLVEHAPISDRIAKRDFTLFLDARDRLRISECLLEEFDEIGKQ
notes: TON_1525 (EnfR) of Thermococcus onnurineus NA1, residues 1-146, with R43A; source: E. coli, purified by the same procedure as the wild-type; not shown: His6, C-terminal, kept
In the case of B4, the “stoichiometry N” value [1] is reported as 2.

B5: EnfR R35A mutant (natural protein, Thermococcus onnurineus NA1, UniProt B6YTS4 1-146, looked up)
chain: MGSKSFLTEQQIKILRLRARGLKQSEIAELLGTSAANISILERRALEKIEKARNTITIWEQINSKISVEVRKGEDIFTVPDKLFKKADELQIKVPYSTAEIIAFLVEHAPISDRIAKRDFTLFLDARDRLRISECLLEEFDEIGKQ
notes: TON_1525 (EnfR) of Thermococcus onnurineus NA1, residues 1-146, with R35A; source: E. coli, purified by the same procedure as the wild-type; not shown: His6, C-terminal, kept
With B5 the “stoichiometry N” value [1] was 2.

B6: EnfR (TON_1525) T55I mutant (natural protein, Thermococcus onnurineus NA1, UniProt B6YTS4 1-146, looked up)
chain: MGSKSFLTEQQIKILRLRARGLKQSEIAELLGTSRANISILERRALEKIEKARNIITIWEQINSKISVEVRKGEDIFTVPDKLFKKADELQIKVPYSTAEIIAFLVEHAPISDRIAKRDFTLFLDARDRLRISECLLEEFDEIGKQ
notes: TON_1525 (EnfR) of Thermococcus onnurineus NA1, residues 1-146, with T55I; The T55I change first arose in an adaptive laboratory evolution (strain 156T / MC11); here made by site-directed mutagenesis; source: E. coli Rosetta (DE3), purified (75°C heat step, Ni-NTA, Superdex 75); not shown: His6, C-terminal, kept
B6: binds [2].
